Assays:
[1] = biological target: recombinant full-length murine VDAC1 (murine) (UniProt Q60932)
[2] = biological target: recombinant full-length murine VDAC1 (murine) (UniProt Q60932); remark: listed apart in the source

Sequence of recombinant full-length murine VDAC1 (murine) (Q60932 14-296): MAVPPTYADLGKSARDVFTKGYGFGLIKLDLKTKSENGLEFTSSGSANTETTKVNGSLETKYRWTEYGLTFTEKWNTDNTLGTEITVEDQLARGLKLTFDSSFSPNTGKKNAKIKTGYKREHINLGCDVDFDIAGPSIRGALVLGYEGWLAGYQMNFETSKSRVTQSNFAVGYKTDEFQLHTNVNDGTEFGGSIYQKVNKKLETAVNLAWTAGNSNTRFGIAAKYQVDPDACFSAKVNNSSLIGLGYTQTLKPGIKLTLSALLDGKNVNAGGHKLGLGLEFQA

| Substance | inhibition of channel conductance of bilayer-reconstituted VDAC1 [1] [%] | survival of mESC-derived SOD1^G93A-expressing motor neurons with the (1-20)-N-Ter-Antp peptide, 10 μM, 96 h [2] [fold] |
| --- | --- | --- |
| human mutant SOD1^G93A (enzyme) | 57 | 2 |
| human mutant SOD1^G85R (enzyme) | 40 |  |

Source: article PMC6702328, “A VDAC1-Derived N-Terminal Peptide Inhibits Mutant SOD1-VDAC1 Interactions and Toxicity in the SOD1 Model of ALS” (Frontiers in Cellular Neuroscience, 2019)
